We go through 2 proteins from patent publication US20110111454.

For the data set, the target named is T1, IFNα2b[Tn]-FCHASE.
T1 chain: VGVTETP

B1: CgtBOH4384 (FL, N-terminal MalE) (protein)
chain: MFKISIILPTYNVEQYIARAIESCINQTFKDIEIIVVDDCGNDNSINIAKEYSKKDKRIKIIHNEKNLGLLRARYEGVKVANSPYIMFLDPDDYLELNACEECIKILDEQDEVDLVFFNAIVESNVISYKKFDFNSGFYSKKEFVKKIIAKKNLYWTMWGKLIRKKLYLEAFASLRLEKDVKINMAEDVLLYYPMLSQAQKIAYMNCNLYHYVPNNNSICNTKNEVLVKNNIQELQLVLNYLRQNYILNKYCSVLYVLIKYLLYIQIYKIKRTKLMVTLLAKINILTLKILFKYKKFLKQC
As to B1, the Specific Activity (mU/mg) on 1 mM IFNα2b[Tn]-FCHASE stood at 83.5 mU/mg.

B2: CgtB11168 (FL, N-terminal MalE) (protein)
chain: MSQISIILPTYNVEKYIARALESCINQTFKDIEIIVVDDCGNDKSIDIAKEYASKDDRIKIIHNEENLKLLRARYEGAKVATSPYIMFLDSDDYLELNACEECIKILDMGGGGKIDLLCFEAFITNAKKSIKKLNIKQGKYNNKEFTMQILKTKNPFWTMWAKIIKKDIYLKAFNMLNLKKEIKINMAEDALLYYPLTILSNEIFYLTQPLYTQHVNSNSITNNINSLEANIQEHKIVLNVLKSIKNKKTPLYFLIIYLLKIQLLKYEQNFNKRNINLIYYKINILYQKYQFKWKKFLYNLIP
B2: the “conversion of the glycopeptide acceptor by capillary electrophoresis” value was “ND^2 (For the CgtB enzyme from the 11168 only very low-level conversion was detectable on the glycopeptide acceptor by capillary electrophoresis <5%.)”.
